Measured values from patent US20250332197A1 (SUNSHINE LAKE PHARMA, published 2025).
Changes are numbered by the printed parent chain. Each block holds one binder with its values, some of them ahead of it.

Experiments:
[1] = molecular target: T1, claudin-18.2 antigen (manufacturer: GenScript, batch number: R50092011) (UniProt P56856-2 1-261, limits assumed); experiment: ELISA, plate coated with claudin-18.2 antigen
T1 construct: Bought antigen
T1 sequence (looked up): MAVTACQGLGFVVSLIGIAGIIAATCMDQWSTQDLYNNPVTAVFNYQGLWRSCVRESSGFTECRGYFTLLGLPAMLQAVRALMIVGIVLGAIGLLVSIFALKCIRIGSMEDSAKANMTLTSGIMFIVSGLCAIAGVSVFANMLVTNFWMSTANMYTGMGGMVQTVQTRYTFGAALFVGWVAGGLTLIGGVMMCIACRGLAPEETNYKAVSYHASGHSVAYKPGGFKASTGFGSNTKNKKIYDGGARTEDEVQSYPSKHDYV
Method: The ELISA plates were washed three times with PBST and blocked with 5% PBS-milk for 2 h at room temperature. The ELISA plate was washed three times with PBST, and the diluted antibodies were added to the ELISA plate, 30 μL per well, and incubated at room temperature for 60 min. The plates were washed three times with PBST and incubated with anti-human IgG-Fc-HRP (abcam, ab97225) for 50 min at room temperature. The plate was washed 12 times with PBST, and TMB was added, 30 μL per well. The reaction was terminated with stop solution and OD450 was read. The ELISA affinity EC50 was calculated.

[2] = molecular target: T1, claudin-18.2 antigen (manufacturer: …); experiment: Gator label-free kinetics, antibody loaded, antigen 2000-500 nM
Method: The GATOR instrument and associated software were opened and the Kinetics experimental mode was selected. After data collection, Kinetics fitting was performed to calculate the affinity kinetic parameters. The correlation coefficient R² of all antibodies in the Global fitting mode was greater than 0.95, which met the system suitability requirements and the results were reliable.

EC50 [1]: 0.262 µg/mL
Kd [2]: 21.6 nM
koff [2]: 0.000269 s⁻¹
kon [2]: 12400 M⁻¹ s⁻¹
B1: 1E7-huVH2huVL2 (antibody, human IgG4 S228P, kappa)
heavy: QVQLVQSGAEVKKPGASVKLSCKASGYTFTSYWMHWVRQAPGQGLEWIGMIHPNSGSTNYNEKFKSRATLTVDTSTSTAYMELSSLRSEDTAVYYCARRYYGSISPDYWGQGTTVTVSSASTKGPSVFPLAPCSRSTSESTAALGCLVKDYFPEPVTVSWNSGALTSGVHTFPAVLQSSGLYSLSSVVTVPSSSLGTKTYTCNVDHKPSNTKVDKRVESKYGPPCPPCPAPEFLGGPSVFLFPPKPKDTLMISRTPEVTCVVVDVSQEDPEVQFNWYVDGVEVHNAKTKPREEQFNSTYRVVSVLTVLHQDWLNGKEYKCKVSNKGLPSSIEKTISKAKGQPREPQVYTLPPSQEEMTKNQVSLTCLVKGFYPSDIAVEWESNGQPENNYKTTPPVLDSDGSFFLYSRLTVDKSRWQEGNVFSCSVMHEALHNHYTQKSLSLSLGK
light: DIQMTQSPSSLSASVGDRVTMTCKSSQSLLNSGNQKNYLTWYQQKPGKAPKLLIYWASTRESGVPSRFSGSGSGTDFTLTISSLQPEDFATYYCQNDYSYPFTFGGGTKLEIKRTVAAPSVFIFPPSDEQLKSGTASVVCLLNNFYPREAKVQWKVDNALQSGNSQESVTEQDSKDSTYSLSSTLTLSKADYEKHKVYACEVTHQGLSSPVTKSFNRGEC
notes: humanized 1E7, human IgG4, kappa; also called P04898

EC50 [1]: 0.0479 µg/mL
Kd [2]: 4.9 nM
koff [2]: 5.97e-05 s⁻¹
kon [2]: 12200 M⁻¹ s⁻¹
B2: 1E7-huVH1-HC (IgG1) huVL1 (antibody)
heavy: not shown
light: B1 light with Q3V, A13V, K48Q, A49P, S66D, L84V
notes: humanized 1E7, human IgG1, kappa

EC50 [1]: 0.141 µg/mL
Kd [2]: 13.1 nM
koff [2]: 0.000167 s⁻¹
kon [2]: 12800 M⁻¹ s⁻¹
B3: 1E7-huVH5-HC (IgG1) huVL2 (antibody)
heavy: not shown
light: B1 light
notes: as for B2

EC50 [1]: 0.202 µg/mL
Kd [2]: 10.6 nM
koff [2]: 0.000144 s⁻¹
kon [2]: 13600 M⁻¹ s⁻¹
B4: 1B6-huVH5huVL2 (antibody, human IgG4 S228P, kappa)
heavy: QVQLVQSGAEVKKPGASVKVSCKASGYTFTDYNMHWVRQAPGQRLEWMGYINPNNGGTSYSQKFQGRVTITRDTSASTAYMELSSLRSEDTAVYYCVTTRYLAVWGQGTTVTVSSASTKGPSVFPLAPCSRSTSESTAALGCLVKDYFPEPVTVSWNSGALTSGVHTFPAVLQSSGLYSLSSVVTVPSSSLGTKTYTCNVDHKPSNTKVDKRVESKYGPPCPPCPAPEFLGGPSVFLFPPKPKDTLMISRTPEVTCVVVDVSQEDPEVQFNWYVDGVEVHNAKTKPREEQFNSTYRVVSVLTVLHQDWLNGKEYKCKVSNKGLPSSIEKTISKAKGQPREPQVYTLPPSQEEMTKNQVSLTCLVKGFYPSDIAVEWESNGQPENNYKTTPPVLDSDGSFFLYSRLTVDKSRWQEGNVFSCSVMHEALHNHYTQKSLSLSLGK
light: B1 light with L30F, F102L
notes: humanized 1B6, human IgG4, kappa

EC50 [1]: 0.496 µg/mL
Kd [2]: 5.24 nM
koff [2]: 5.29e-05 s⁻¹
kon [2]: 10100 M⁻¹ s⁻¹
B5: 1E7-huVH5huVL2 (antibody, human IgG4 S228P, kappa)
heavy: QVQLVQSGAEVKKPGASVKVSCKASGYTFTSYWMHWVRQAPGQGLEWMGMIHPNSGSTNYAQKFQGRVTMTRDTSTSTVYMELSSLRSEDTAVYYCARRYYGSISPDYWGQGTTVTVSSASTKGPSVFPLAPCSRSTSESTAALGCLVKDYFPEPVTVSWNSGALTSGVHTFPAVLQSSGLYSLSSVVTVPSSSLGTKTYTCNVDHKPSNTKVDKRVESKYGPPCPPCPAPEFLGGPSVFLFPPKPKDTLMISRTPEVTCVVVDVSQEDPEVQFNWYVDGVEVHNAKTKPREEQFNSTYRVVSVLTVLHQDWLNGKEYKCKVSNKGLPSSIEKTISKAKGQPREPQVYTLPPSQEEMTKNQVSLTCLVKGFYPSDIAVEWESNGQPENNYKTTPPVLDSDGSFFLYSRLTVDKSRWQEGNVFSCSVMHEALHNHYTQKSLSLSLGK
light: B1 light
notes: humanized 1E7, human IgG4, kappa

EC50 [1]: 0.111 µg/mL
Kd [2]: 1.82 nM
koff [2]: 1.97e-05 s⁻¹
kon [2]: 10900 M⁻¹ s⁻¹
B6: 1E7-huVH2-HC (IgG1) huVL1 (antibody)
heavy: not shown
light: B1 light with Q3V, A13V, K48Q, A49P, S66D, L84V
notes: as for B2

EC50 [1]: 0.606 µg/mL
Kd [2]: 12 nM
koff [2]: 0.000132 s⁻¹
kon [2]: 11000 M⁻¹ s⁻¹
B7: 1E7-huVH3huVL1 (antibody, human IgG4 S228P, kappa)
heavy: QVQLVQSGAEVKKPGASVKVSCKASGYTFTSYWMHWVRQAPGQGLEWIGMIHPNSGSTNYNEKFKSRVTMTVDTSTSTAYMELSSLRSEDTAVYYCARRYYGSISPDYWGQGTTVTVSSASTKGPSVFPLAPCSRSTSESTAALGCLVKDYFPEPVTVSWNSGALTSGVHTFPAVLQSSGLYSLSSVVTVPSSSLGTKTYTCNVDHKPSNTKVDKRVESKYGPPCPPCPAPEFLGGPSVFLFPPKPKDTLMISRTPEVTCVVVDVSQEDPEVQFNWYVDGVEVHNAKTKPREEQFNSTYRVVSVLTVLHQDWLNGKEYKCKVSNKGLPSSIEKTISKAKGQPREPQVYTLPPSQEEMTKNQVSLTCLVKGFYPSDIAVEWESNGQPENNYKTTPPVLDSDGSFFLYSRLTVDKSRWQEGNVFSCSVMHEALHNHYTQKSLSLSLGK
light: B1 light with Q3V, A13V, K48Q, A49P, S66D, L84V
notes: as for B5

EC50 [1]: 0.209 µg/mL
Kd [2]: 8.11 nM
koff [2]: 8.56e-05 s⁻¹
kon [2]: 10600 M⁻¹ s⁻¹
B8: 1B6-huVH3huVL3 (antibody, human IgG4 S228P, kappa)
heavy: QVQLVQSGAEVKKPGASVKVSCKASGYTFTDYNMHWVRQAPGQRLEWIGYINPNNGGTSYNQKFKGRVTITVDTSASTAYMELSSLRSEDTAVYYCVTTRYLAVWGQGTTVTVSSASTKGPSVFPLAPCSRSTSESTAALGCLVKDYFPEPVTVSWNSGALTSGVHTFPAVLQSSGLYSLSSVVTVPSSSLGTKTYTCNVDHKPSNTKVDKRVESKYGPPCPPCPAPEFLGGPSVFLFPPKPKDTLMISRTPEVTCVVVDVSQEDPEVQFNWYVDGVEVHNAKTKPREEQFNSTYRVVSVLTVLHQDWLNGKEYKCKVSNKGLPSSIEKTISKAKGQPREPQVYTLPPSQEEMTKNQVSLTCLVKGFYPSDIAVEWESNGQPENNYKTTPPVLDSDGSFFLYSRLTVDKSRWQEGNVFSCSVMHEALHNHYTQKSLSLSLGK
light: B1 light with M21I, K24R, L30F, F102L
notes: as for B4

EC50 [1]: 0.13 µg/mL
Kd [2]: 0.929 nM
koff [2]: 9.83e-06 s⁻¹
kon [2]: 10600 M⁻¹ s⁻¹
B9: 1E7-huVH5-HC (IgG1) huVL3 (antibody)
heavy: not shown
light: B1 light with M21I, K24R
notes: as for B2

EC50 [1]: 0.0707 µg/mL
Kd [2]: 11.6 nM
koff [2]: 0.000132 s⁻¹
kon [2]: 11300 M⁻¹ s⁻¹
B10: 1E7-huVH3-HC (IgG1) huVL3 (antibody)
heavy: not shown
light: B1 light with M21I, K24R
notes: as for B2

EC50 [1]: 0.346 µg/mL
Kd [2]: 7.24 nM
koff [2]: 8.07e-05 s⁻¹
kon [2]: 11100 M⁻¹ s⁻¹
B11: 1B6-huVH4huVL3 (antibody, human IgG4 S228P, kappa)
heavy: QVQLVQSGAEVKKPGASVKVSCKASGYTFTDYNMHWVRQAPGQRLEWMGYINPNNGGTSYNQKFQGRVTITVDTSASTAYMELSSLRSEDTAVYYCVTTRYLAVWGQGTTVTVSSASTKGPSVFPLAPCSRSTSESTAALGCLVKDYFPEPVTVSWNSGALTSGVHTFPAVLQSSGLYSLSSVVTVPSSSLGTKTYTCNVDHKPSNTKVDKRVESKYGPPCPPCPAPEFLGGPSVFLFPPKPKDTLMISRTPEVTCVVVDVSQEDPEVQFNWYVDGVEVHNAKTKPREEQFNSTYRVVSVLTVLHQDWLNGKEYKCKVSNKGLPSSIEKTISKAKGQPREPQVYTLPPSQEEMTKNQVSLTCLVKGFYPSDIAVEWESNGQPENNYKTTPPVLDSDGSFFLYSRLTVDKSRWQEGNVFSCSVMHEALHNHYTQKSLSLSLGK
light: B1 light with M21I, K24R, L30F, F102L
notes: humanized 1B6, human IgG4, kappa; also called P04891

EC50 [1]: 0.0555 µg/mL
Kd [2]: 2.89 nM
koff [2]: 3.18e-05 s⁻¹
kon [2]: 11000 M⁻¹ s⁻¹
B12: 1E7-huVH2-HC (IgG1) huVL2 (antibody)
heavy: not shown
light: B1 light
notes: as for B2

EC50 [1]: 0.0663 µg/mL
Kd [2]: 0.35 nM
koff [2]: 3.6e-06 s⁻¹
kon [2]: 10300 M⁻¹ s⁻¹
B13: 1E7-huVH3-HC (IgG1) huVL1 (antibody)
heavy: not shown
light: B1 light with Q3V, A13V, K48Q, A49P, S66D, L84V
notes: as for B2

EC50 [1]: 0.0978 µg/mL
Kd [2]: 4.57 nM
koff [2]: 6.36e-05 s⁻¹
kon [2]: 13900 M⁻¹ s⁻¹
B14: 1B6-huVH2huVL1 (antibody, human IgG4 S228P, kappa)
heavy: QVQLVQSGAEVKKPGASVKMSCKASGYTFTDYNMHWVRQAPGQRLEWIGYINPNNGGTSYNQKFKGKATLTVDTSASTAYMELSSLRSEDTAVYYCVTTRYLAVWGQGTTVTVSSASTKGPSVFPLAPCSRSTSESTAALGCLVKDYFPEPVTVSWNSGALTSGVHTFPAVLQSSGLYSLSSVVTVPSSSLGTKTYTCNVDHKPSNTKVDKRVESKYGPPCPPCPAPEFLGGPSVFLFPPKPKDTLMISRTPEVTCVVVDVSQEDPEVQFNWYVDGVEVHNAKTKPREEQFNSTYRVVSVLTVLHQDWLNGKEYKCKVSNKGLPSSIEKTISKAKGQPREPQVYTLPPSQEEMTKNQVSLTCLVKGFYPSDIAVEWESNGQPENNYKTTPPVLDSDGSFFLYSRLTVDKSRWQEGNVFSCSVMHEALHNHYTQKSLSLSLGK
light: B1 light with Q3V, A13V, L30F, S66D, L84V, Y93F, F102L
notes: as for B4

Kd [2]: 2.66 nM
koff [2]: 2.71e-05 s⁻¹
kon [2]: 10200 M⁻¹ s⁻¹
B15: 1E7-mVHmVL (antibody, human IgG4 S228P, kappa)
heavy: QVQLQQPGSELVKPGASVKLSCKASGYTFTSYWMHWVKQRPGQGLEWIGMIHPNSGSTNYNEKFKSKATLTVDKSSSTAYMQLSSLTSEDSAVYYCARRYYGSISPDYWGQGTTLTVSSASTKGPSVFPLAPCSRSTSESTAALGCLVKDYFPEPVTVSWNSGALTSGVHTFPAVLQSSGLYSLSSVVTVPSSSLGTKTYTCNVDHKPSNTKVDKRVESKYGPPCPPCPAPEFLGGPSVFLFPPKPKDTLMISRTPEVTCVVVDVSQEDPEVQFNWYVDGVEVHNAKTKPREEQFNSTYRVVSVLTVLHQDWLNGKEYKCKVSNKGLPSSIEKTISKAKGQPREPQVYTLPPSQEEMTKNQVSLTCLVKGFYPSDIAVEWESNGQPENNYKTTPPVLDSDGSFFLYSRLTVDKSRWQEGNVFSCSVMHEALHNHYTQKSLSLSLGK
light: DIVMTQSPSSLSVTAGEKVTMSCKSSQSLLNSGNQKNYLTWYQQKPGQPPKLLIYWASTRESGVPDRFTGSGSGTDFTLTISSVQAEDLAVYYCQNDYSYPFTFGSGTKLEIKRTVAAPSVFIFPPSDEQLKSGTASVVCLLNNFYPREAKVQWKVDNALQSGNSQESVTEQDSKDSTYSLSSTLTLSKADYEKHKVYACEVTHQGLSSPVTKSFNRGEC
notes: also called chimeric antibody 1E7; chimeric antibody murine 1E7 monoclonal antibody

Kd [2]: 3.82 nM
koff [2]: 4.48e-05 s⁻¹
kon [2]: 11700 M⁻¹ s⁻¹
B16: 1E7-mVH-HC (IgG1) mVL (antibody)
heavy: not shown
light: B15 light
notes: also called chimeric antibody 1E7-mVH-HC (IgG1) mVL

Kd [2]: 84.2 nM
koff [2]: 0.00188 s⁻¹
kon [2]: 22300 M⁻¹ s⁻¹
B17: 1B6-mVHmVL (antibody, human IgG4 S228P, kappa)
heavy: not shown
light: B15 light with S12T, L30F, Y93F, F102L, S106A, I112L
notes: also called chimeric antibody 1B6; chimeric antibody murine 1B6 monoclonal antibody

Kd [2]: 44.4 nM
koff [2]: 0.000792 s⁻¹
kon [2]: 17800 M⁻¹ s⁻¹
B18: 1B6-mVH-HC (IgG1) mVL (antibody)
heavy: not shown
light: B15 light with S12T, L30F, Y93F, F102L, S106A, I112L
notes: also called chimeric antibody 1B6-mVH-HC (IgG1) mVL
